Results on 2 molecules are retold here after patent US20070032406A1 (UNIVERSITY OF ROCHESTER, published 2007).

The target of test [1] is NgR2 (full-length, N-terminally myc-tagged rat NgR2) (rat) (UniProt Q80WD1). Put plainly: MAG-Fc binding to transfected COS-7 cells, direct comparison with NgR.
For test [2] the target is unchanged. Put plainly: estimated from the 5 fold comparison on COS-7 cells and the literature Kd of MAG-Fc/NgR.
For test [3] the target is unchanged. Put plainly: Scatchard plot analysis, MAG-Fc on NgR2 expressing COS-7 cells.
For test [4] the target is unchanged. Put plainly: MAG-Fc binding to NgR2 expressing COS-7 cells.
Test [5] has as its target T1, NgR1 (Nogo receptor; full-length, N-terminally myc-tagged rat NgR) (rat, UniProt Q99M75 26-447).
T1 construct: GPI-linked; Expressed on COS-7 cells, in HEK293T cells (co-IP) and by adenovirus in rat DRG neurons; the tag is stated only for the COS-7 construct; also called myc-NgR[Pro26-Cys473]
T1 sequence: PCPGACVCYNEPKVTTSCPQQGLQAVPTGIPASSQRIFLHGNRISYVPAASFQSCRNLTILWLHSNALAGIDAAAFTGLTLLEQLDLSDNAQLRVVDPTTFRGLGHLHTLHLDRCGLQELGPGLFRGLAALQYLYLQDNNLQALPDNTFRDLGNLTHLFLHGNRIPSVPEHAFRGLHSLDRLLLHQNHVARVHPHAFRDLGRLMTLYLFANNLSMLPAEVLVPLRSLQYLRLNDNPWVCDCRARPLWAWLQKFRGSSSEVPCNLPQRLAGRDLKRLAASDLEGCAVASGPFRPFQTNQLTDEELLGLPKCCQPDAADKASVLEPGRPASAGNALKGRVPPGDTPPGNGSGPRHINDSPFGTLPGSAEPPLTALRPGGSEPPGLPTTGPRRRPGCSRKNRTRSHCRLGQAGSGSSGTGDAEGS
Put plainly: AP-ligand binding to transfected COS-7 cells.

The target in test [6] is T2, NgR3 (full-length, N-terminally myc-tagged rat NgR3) (rat, UniProt Q80WD0 24-424).
T2 construct: also called myc-NgR3[Gly24-Arg445]
T2 sequence: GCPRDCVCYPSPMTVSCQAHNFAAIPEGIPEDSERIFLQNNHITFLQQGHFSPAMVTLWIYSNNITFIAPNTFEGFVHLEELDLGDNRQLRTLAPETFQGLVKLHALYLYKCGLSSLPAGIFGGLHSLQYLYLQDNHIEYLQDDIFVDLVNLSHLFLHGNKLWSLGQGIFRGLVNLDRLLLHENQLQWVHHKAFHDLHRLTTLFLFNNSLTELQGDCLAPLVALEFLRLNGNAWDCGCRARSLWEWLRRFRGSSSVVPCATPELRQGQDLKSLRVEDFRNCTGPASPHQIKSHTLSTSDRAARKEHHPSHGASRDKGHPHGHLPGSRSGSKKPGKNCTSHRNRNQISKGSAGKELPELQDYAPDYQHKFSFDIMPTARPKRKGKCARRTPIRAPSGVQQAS
Briefly: AP-ligand binding to transfected COS-7 cells.

Test [7] deals with T3, NgR2 (full-length, N-terminally myc-tagged rat NgR2) (rat, UniProt Q80WD1 30-390).
T3 construct: also called myc-NgR2[Ser30-Leu420]
T3 sequence: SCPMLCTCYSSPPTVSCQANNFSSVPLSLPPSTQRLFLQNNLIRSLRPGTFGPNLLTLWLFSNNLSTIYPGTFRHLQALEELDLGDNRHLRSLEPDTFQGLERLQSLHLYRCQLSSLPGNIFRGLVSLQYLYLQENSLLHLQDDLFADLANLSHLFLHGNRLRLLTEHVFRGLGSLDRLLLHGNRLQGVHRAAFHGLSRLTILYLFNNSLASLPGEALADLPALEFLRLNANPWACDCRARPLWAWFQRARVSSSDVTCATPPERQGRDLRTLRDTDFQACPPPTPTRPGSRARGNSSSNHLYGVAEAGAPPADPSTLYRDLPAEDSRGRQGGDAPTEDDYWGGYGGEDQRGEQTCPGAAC
Briefly: AP-ligand binding to transfected COS-7 cells.

On to “MAG-Fc (MAG ectodomain fused to the Fc fragment of human immunoglobulin) (Fc fusion)”, for which the fold tighter binding than to NgR in test [1] came to 5 fold. In addition, the Kd in test [2] was 1 to 2 nM; in test [3], 2 nM. The molecule also gave a concentration at which binding saturates in test [4] of 5 to 10 nM.

B1: AP-sNgR^C-term (LRRCT domain together with the unique domain of NgR, residues 261-445, AP fusion) (receptor)
chain: PWVCDCRARPLWAWLQKFRGSSSEVPCNLPQRLAGRDLKRLAASDLEGCAVASGPFRPFQTNQLTDEELLGLPKCCQPDAADKASVLEPGRPASAGNALKGRVPPGDTPPGNGSGPRHINDSPFGTLPGSAEPPLTALRPGGSEPPGLPTTGPRRRPGCSRKNRTRSHCRLGQAGSGSSGTGDAE
notes: Soluble, made in HEK293T cells; also called AP-sNgRCTu [Pro261-Glu445]; AP-NgR^C-term; not shown: alkaline phosphatase (AP) tag
As for B1, the binding result in test [5], in test [6] and in test [7] was “no binding” each time.

Broadly, the Kd is the concentration at which binding is half-saturated.
